Test results taken from US20260132223.

What was measured:
[1] = target: TdT (murine terminal deoxynucleotidyl transferase, single cysteine at position 182, conjugated to dNTP via amino acid ester linker) (Mus musculus) (UniProt P09838); settings: hydroxymethyl scar on 3'-terminal T base; dTTP ester-linker conjugate; same yield as natural unscarred primer
[2] = target: TdT (murine terminal deoxynucleotidyl transferase, single cysteine at position 182, conjugated to dNTP via amino acid ester linker) (Mus musculus) (UniProt P09838); assay: EMSA; settings: Linker 1 or 2 dTTP conjugate, 60 s; covalent primer-extension complex on SDS-PAGE gel shift

Chain of TdT (murine terminal deoxynucleotidyl transferase, single cysteine at position 182, conjugated to dNTP via amino acid ester linker) (Mus musculus) (P09838 other isoform, or with tags, fused parts or gaps): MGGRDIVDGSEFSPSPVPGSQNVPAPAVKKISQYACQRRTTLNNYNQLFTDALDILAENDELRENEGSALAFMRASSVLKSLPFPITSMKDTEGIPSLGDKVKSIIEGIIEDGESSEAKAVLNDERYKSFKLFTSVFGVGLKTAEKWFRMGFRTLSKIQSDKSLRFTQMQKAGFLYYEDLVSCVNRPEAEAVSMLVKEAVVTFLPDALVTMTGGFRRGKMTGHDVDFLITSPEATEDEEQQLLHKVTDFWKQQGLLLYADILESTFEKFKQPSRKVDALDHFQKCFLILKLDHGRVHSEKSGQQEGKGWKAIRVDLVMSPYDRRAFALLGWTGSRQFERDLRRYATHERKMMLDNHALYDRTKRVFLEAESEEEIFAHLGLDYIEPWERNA

Substance	activity (% extension in 1 s) [1]	activity [2]
primer with 3'-terminal hydroxymethyl-scarred dT	35	
ssDNA primer		> 95 % extension
